Source: publication PMC7949057, “The cytoprotective protein MANF promotes neuronal survival independently from its role as a GRP78 cofactor” (The Journal of Biological Chemistry, 2021)

B1: Nucleotide-binding domain (NBD) of GRP78 (domain or fragment)
chain: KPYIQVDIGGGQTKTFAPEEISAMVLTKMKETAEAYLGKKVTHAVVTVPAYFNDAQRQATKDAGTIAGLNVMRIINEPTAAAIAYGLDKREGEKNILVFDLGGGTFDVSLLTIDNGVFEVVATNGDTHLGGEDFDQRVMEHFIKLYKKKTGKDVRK
modifications: RED-tris-NTA dye held on the His-tag
B2: Recombinant human MANF protein (natural protein, UniProt P55145 25-182, looked up)
chain: LRPGDCEVCISYLGRFYQDLKDRDVTFSPATIENELIKFCREARGKENRLCYYIGATDDAATKIINEVSKPLAHHIPVEKICEKLKKKDSQICELKYDKQIDLSTVDLKKLRVKELKKILDDWGETCKGCAEKSDYIRKINELMPKYAPKAASARTDL
notes: MANF, human, mature protein secreted from CHO-derived cells; also called wild-type MANF; FL-MANF; source: CHO-derived cell line (QMCF technology), purified from culture media (Q FF, SP HP, SEC)
B3: CH1-derived substrate peptide (HTFPAVL) (peptide)
peptide: HTFPAVL
notes: peptide derived from the CH1 domain of an IgG heavy chain; also called IgG heavy chain-derived peptide; source: synthetic peptide (custom synthesis by Pepscan)

How the values were obtained:
Conditions in all cases: both partners purified
[1] = target: B2; assay: MST; GRP78 or its variants labelled through the N-terminal His-tag, constant 20 nM; ligand titrated in 2-fold dilutions; 25 °C; MST buffer (10 mM Na-phosphate pH 7.4, 1 mM MgCl2, 3 mM KCl, 150 mM NaCl, 0.05% Tween-20); no nucleotide; for MANF with GRP78 also 0, 1, 100 or 200 uM CaCl2; fit with 1:1 stoichiometry
[2] = target: T1, Recombinant hamster GRP78 protein (hamster, UniProt G3I8R9 19-654, RED-tris-NTA dye held on the His-tag); assay: as above
T1 construct: GRP78 (BiP), hamster; also called BiP; full-length GRP78; not shown: His-tag, N-terminal, kept

[3] = target: T1, Recombinant hamster GRP78 protein; assay: MST; as a4, in the presence of ADP
[4] = target: T1, Recombinant hamster GRP78 protein; assay: MST; as a4, in the presence of AMP

T1 sequence (G3I8R9 19-654): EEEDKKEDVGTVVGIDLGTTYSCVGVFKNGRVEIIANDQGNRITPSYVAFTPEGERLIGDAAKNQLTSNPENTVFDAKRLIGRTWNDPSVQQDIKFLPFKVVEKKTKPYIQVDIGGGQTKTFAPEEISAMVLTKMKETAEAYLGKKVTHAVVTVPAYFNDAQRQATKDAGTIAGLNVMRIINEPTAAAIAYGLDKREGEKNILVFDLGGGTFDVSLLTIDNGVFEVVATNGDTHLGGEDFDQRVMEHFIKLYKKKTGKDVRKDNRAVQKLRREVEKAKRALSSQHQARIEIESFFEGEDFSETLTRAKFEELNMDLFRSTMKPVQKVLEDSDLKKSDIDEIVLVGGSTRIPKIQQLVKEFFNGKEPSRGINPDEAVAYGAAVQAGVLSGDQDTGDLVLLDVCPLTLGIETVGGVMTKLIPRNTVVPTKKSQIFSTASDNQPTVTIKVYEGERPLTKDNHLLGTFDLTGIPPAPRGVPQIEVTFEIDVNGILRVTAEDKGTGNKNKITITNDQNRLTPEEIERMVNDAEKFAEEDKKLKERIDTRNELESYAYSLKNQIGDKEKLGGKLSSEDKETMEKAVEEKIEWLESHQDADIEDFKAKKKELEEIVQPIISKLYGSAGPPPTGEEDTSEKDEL

B1 was tested, and the Kd [1] was 280 nM.

B2 was tested, and the Kd [2] was 380 nM, the Kd [3] was 5690 nM and the Kd [4] was 260 nM.

In the case of B3, the Kd [2] is reported as 220 nM and the Kd [3] is reported as 120 nM.
